Test results reported in paper PMC12527912.

Assays:
[1] = target: lamin A tail LA 430-585;histone octamer (H2A, H2B, H3, H4) (Xenopus laevis) (UniProt P84233+P62799+P06897+P02281); assay: EMSA; conditions: 0.05 uM Alexa 488 nucleosome; LA 3.1-400 uM; EMSA: 150 mM NaCl, 20 mM HEPES pH 7.5, 1 mM DTT, 4 C, 1 h, 6% native PAGE; TIRF buffer not in the material
[2] = target: lamin A peptide LA 572-588;histone octamer (H2A, H2B, H3, H4) (;Xenopus laevis) (UniProt P02545+P84233+P62799+P06897+P02281); assay: competition (TIRF); conditions: EMSA: 150 mM NaCl, 20 mM HEPES pH 7.5, 1 mM DTT, 4 C, 1 h, 6% native PAGE; TIRF buffer not in the material
[3] = target: lamin A 430–585 C570A, labelled with CF660R (UniProt P02545); assay: fluorescence correlation spectroscopy (FCS); 500 pM CF660R-labelled LA 430–585 C570A, diffusion time against H2A–H2B concentration; 20 mM HEPES pH 8, 150 mM NaCl, 0.01% Tween20, 2 mM ascorbic acid and methyl viologen; one-to-one binding model
[4] = target: H4K20C nucleosome labelled with Alexa Fluor 488 (Xenopus laevis); assay: native gel or EMSA; 4 °C; 150 mM NaCl, 20 mM HEPES pH 7.5, 1 mM DTT; 0.05 µM Alexa 488-labeled nucleosomes with 3.1 µM to 400 µM lamin fragment, 1 h; 6% native PAGE
[5] = target: H4K20C nucleosome labelled with Alexa Fluor 488 (Xenopus laevis); assay: TIRF microscopy on micropatterned nucleosomes, competition; as a6 with 1 µM CF660R-labelled LA 430–585 and 0 to 1500 µM unlabelled peptide LA 572–588; ratio of lamin to nucleosome fluorescence fitted with a four-parameter dose–response Hill–Langmuir equation

197 bp 601 nucleosome gave a Kd [1] of 48 µM and an IC50 [2] of 5 µM.

Work on “H2A–H2B heterodimer (Xenopus laevis) (from UniProt P06897 11-120; P02281 1-126) (complex)” yielded a Kd [3] of 12 µM.

“lamin A 430–585, from the 6xHis-SUMO plasmid, tag cleaved (from UniProt P02545 430-585) (domain or fragment)” showed a Kd [4] of 48 µM.

“synthetic peptide comprising amino acids 572–588 of lamin A” showed an EC50 [5] of 5 µM.
